Reference: PMC8183676 (Molecular cell, 2020)
One block for each binder: values may come before it.

Assays:
GST-MDA5ΔN = molecular target: T1, GST-MDA5ΔN (human, UniProt Q9BYX4 287-1025); assay: native gel or EMSA
T1 sequence (looked up): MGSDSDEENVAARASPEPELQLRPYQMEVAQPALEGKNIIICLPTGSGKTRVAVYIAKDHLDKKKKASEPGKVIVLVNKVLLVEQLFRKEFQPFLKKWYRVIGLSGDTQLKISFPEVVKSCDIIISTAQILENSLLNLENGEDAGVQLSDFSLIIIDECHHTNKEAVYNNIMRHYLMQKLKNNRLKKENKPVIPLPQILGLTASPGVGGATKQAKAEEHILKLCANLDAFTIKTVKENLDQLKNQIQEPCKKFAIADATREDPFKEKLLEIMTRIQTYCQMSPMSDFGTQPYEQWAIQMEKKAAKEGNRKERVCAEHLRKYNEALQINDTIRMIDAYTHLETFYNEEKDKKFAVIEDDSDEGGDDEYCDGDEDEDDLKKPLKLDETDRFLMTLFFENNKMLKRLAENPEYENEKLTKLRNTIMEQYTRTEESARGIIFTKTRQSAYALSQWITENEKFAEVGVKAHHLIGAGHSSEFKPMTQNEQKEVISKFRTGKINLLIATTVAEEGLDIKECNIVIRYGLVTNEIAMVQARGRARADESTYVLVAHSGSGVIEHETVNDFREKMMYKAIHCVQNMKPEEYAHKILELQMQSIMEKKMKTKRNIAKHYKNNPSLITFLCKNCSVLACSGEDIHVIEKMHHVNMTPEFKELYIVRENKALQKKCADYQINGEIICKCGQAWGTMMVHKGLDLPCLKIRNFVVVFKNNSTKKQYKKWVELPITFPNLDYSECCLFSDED

SEC-MALS = molecular target: the molecule itself; assay: SEC-MALS
MDA5ΔN = molecular target: T2, MDA5ΔN (human, UniProt Q9BYX4 287-1025); assay: native gel or EMSA
T2 sequence (looked up): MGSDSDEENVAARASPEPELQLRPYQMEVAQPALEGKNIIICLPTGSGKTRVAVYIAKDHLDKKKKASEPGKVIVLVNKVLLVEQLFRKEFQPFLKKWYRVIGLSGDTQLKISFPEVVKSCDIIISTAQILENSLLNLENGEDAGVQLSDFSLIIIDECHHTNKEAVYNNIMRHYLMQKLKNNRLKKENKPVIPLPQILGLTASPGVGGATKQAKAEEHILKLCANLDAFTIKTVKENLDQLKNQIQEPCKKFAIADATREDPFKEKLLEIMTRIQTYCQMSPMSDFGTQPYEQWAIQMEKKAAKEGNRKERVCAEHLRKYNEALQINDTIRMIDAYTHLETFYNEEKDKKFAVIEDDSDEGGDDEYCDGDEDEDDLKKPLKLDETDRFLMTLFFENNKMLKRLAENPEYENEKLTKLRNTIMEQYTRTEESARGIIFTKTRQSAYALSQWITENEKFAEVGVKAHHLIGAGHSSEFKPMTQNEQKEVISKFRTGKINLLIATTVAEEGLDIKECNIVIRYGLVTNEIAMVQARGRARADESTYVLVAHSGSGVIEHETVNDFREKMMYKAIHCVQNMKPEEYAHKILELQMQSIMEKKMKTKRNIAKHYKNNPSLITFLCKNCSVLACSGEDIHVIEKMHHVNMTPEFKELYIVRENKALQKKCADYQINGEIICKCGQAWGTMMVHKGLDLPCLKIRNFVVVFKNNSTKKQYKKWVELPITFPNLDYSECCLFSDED

[1] = molecular target: T3, full-length MDA5, fluorescein-labelled (human, UniProt Q9BYX4 1-1025, fluorescein-conjugated peptide (LPETGG) joined to the N-terminus with sortase A); assay: native gel or EMSA
T3 sequence (looked up): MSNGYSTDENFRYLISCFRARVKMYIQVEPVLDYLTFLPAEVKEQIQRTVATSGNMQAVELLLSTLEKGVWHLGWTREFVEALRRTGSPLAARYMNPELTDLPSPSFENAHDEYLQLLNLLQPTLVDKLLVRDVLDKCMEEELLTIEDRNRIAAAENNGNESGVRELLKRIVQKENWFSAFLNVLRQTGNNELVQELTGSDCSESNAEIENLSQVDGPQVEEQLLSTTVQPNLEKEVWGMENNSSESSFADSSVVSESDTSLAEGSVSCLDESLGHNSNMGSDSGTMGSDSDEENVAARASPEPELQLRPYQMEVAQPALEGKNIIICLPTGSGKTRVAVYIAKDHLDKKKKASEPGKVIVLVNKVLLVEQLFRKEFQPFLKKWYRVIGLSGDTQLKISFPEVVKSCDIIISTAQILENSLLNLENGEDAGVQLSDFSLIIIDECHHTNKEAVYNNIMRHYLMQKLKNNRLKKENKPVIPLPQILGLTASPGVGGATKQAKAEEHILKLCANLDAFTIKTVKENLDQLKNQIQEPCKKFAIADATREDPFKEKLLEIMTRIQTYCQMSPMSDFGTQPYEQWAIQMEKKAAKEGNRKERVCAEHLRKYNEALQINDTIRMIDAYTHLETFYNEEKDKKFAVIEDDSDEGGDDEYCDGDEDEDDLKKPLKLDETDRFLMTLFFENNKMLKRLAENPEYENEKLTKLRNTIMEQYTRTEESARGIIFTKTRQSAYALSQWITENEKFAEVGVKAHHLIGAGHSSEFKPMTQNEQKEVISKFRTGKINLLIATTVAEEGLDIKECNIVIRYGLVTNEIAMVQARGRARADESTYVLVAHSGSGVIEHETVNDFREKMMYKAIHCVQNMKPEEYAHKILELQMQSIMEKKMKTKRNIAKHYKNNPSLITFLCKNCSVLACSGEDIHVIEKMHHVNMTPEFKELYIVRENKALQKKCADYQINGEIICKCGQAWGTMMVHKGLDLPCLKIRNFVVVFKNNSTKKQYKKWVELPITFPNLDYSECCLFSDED

[2] = molecular target: T4, MDA5ΔN, fluorescein-labelled (human, UniProt Q9BYX4 287-1025, fluorescein-conjugated peptide (LPETGG) joined to the N-terminus with sortase A); assay: native gel or EMSA
T4 sequence (looked up): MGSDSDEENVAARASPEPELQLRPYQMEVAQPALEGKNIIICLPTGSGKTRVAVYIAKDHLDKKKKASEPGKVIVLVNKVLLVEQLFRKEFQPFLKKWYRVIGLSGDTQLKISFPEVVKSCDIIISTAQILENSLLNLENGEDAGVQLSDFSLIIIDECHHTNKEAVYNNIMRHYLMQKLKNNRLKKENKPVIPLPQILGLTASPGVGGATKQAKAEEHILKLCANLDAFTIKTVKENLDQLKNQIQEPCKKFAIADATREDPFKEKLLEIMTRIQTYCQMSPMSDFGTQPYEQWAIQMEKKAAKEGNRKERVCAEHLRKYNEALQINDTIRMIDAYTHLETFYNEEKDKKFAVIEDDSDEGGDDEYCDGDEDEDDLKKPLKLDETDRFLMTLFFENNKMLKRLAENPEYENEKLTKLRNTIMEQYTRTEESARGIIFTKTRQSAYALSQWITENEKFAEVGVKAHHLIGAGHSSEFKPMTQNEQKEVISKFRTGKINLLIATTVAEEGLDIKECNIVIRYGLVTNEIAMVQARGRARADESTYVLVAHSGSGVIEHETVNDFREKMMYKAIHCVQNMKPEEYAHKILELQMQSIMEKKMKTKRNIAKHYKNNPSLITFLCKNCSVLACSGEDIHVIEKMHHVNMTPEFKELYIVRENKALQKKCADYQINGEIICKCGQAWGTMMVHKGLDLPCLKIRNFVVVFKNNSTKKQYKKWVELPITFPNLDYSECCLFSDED

- binding result (GST-MDA5ΔN): binds
B1: TRIM65 CC-PSpry, fluorescein-labelled (domain or fragment, human, UniProt Q6PJ69 125-517, looked up)
chain: HERALLDAERLKREAQLRASLEVTQQQATQAEGQLLELRKQSSQIQNSACILASWVSGKFSSLLQALEIQHTTALRSIEVAKTQALAQARDEEQRLRVHLEAVARHGCRIRELLEQVDEQTFLQESQLLQPPGPLGPLTPLQWDEDQQLGDLKQLLSRLCGLLLEEGSHPGAPAKPVDLAPVEAPGPLAPVPSTVCPLRRKLWQNYRNLTFDPVSANRHFYLSRQDQQVKHCRQSRGPGGPGSFELWQVQCAQSFQAGHHYWEVRASDHSVTLGVSYPQLPRCRLGPHTDNIGRGPCSWGLCVQEDSLQAWHNGEAQRLPGVSGRLLGMDLDLASGCLTFYSLEPQTQPLYTFHALFNQPLTPVFWLLEGRTLTLCHQPGAVFPLGPQEEVLS
modifications: fluorescein-conjugated peptide (LPETGG) joined to the N-terminus with sortase A

- Kd (MDA5ΔN): 171 nM
B2: TRIM65 CC-PSpry (domain or fragment, human, UniProt Q6PJ69 125-517, looked up)
chain: HERALLDAERLKREAQLRASLEVTQQQATQAEGQLLELRKQSSQIQNSACILASWVSGKFSSLLQALEIQHTTALRSIEVAKTQALAQARDEEQRLRVHLEAVARHGCRIRELLEQVDEQTFLQESQLLQPPGPLGPLTPLQWDEDQQLGDLKQLLSRLCGLLLEEGSHPGAPAKPVDLAPVEAPGPLAPVPSTVCPLRRKLWQNYRNLTFDPVSANRHFYLSRQDQQVKHCRQSRGPGGPGSFELWQVQCAQSFQAGHHYWEVRASDHSVTLGVSYPQLPRCRLGPHTDNIGRGPCSWGLCVQEDSLQAWHNGEAQRLPGVSGRLLGMDLDLASGCLTFYSLEPQTQPLYTFHALFNQPLTPVFWLLEGRTLTLCHQPGAVFPLGPQEEVLS
- stoichiometry N (SEC-MALS): 2

- binding result [1]: binds
- binding result [2]: binds
- binding result (MDA5ΔN): binds
B3: TRIM65 (natural protein, human, UniProt Q6PJ69 1-517, looked up)
chain: MAAQLLEEKLTCAICLGLYQDPVTLPCGHNFCGACIRDWWDRCGKACPECREPFPDGAELRRNVALSGVLEVVRAGPARDPGPDPGPGPDPAARCPRHGRPLELFCRTEGRCVCSVCTVRECRLHERALLDAERLKREAQLRASLEVTQQQATQAEGQLLELRKQSSQIQNSACILASWVSGKFSSLLQALEIQHTTALRSIEVAKTQALAQARDEEQRLRVHLEAVARHGCRIRELLEQVDEQTFLQESQLLQPPGPLGPLTPLQWDEDQQLGDLKQLLSRLCGLLLEEGSHPGAPAKPVDLAPVEAPGPLAPVPSTVCPLRRKLWQNYRNLTFDPVSANRHFYLSRQDQQVKHCRQSRGPGGPGSFELWQVQCAQSFQAGHHYWEVRASDHSVTLGVSYPQLPRCRLGPHTDNIGRGPCSWGLCVQEDSLQAWHNGEAQRLPGVSGRLLGMDLDLASGCLTFYSLEPQTQPLYTFHALFNQPLTPVFWLLEGRTLTLCHQPGAVFPLGPQEEVLS
